Experimental data reported in article PMC6877644, “JASPer controls interphase histone H3S10 phosphorylation by chromosomal kinase JIL-1 in Drosophila”.

Tests used:
[1] = target: T1, JASPer (Drosophila melanogaster, UniProt Q9VAA9 1-475); experiment: EMSA; 70 nM DNA; 9-fold molar excess of JASPer shifts all DNA; at least three retarded bands; DNA EMSA: 50 mM HEPES pH 7.6, 50 mM NaCl, 10% glycerol, 2 mM MgCl2, 10% BSA, RT 10 min; RNA EMSA: 25 mM HEPES pH 7.6, 100 mM KCl, 3 mM MgCl2, 1 mM DTT, 5% glycerol, 100 ug/mL yeast tRNA, 20 C 15 min; nucleosome pull-down: 20 mM Tris/Cl pH 7.5, 50 mM NaCl, 5 mM EDTA, 0.1% Tween 20, 4 C 4 h; details: protein: recombinant; tags: C-terminal FLAG; label: Cy5; blunt
T1 sequence: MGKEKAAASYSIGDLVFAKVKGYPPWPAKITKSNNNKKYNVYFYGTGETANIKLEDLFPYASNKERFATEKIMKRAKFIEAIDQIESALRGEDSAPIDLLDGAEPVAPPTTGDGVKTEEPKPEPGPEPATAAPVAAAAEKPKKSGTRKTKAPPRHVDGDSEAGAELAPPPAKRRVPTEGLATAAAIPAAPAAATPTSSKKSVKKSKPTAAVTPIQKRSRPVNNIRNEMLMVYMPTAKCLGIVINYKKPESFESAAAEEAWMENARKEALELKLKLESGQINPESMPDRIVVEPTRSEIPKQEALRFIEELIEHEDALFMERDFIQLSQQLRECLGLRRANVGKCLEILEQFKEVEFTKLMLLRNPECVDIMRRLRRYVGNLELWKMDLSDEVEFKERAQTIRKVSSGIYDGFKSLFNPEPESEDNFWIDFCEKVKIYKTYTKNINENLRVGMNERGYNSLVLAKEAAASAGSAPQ

[2] = target: T2, JIL-1 (Drosophila melanogaster, UniProt Q9V3I5 1-1207); experiment: EMSA; 70 nM DNA; DNA EMSA: 50 mM HEPES pH 7.6, 50 mM NaCl, 10% glycerol, 2 mM MgCl2, 10% BSA, RT 10 min; RNA EMSA: 25 mM HEPES pH 7.6, 100 mM KCl, 3 mM MgCl2, 1 mM DTT, 5% glycerol, 100 ug/mL yeast tRNA, 20 C 15 min; nucleosome pull-down: 20 mM Tris/Cl pH 7.5, 50 mM NaCl, 5 mM EDTA, 0.1% Tween 20, 4 C 4 h; details: protein: recombinant; tags: N-terminal FLAG; label: Cy5; blunt
T2 sequence: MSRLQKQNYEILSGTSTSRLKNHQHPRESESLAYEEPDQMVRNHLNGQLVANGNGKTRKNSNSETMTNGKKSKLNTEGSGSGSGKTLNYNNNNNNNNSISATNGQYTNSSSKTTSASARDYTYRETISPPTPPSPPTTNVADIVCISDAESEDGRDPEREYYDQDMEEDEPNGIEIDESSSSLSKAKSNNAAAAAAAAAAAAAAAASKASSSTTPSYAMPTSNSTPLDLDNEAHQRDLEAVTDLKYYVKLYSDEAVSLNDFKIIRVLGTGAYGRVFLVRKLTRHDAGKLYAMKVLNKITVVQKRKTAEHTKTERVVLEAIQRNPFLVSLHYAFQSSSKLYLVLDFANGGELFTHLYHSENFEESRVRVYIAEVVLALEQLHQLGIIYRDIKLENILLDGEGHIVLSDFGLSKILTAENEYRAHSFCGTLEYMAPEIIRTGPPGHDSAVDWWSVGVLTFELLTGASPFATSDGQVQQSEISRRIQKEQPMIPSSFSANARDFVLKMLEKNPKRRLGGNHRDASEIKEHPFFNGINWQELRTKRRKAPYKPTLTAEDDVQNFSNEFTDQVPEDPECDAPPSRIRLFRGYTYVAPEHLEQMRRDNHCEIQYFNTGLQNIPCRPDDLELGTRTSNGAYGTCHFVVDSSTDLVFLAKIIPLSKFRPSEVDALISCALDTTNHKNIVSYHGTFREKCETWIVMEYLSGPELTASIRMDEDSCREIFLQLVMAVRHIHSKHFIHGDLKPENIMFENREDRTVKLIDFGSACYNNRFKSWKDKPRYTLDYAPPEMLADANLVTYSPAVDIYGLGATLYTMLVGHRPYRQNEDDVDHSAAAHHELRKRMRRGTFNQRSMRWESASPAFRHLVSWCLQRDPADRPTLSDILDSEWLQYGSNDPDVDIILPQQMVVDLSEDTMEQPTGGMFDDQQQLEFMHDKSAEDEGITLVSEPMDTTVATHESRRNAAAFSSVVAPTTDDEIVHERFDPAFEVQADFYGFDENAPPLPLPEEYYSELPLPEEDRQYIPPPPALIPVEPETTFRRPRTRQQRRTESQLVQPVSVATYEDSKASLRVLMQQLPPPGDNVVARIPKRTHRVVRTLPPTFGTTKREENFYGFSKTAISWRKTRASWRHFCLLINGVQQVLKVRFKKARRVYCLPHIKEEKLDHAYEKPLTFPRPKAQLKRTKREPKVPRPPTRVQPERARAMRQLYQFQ

B1: 40 bp dsDNA (end of 601 positioning sequence) (dsDNA)
DNA 1: CCTGGAGAATCCCGGTGCCGAGGCCGCTCAATTGGTCGTA
DNA 2: TACGACCAATTGAGCGGCCTCGGCACCGGGATTCTCCAGG
[1]
  binding result: binds
[2]
  binding result: no binding
